{"source": "paper PMC11153552", "about": "“Clock gene homologs lin-42 and kin-20 regulate circadian rhythms in C. elegans” (Scientific Reports, 2024)", "proteins": {"B1": {"name": "LIN-42 N-terminus residues 41-315 (domain or fragment, C. elegans)", "chain": "GAMDPEFNTWSSSSVEFLDDADDNRLLFTCTFTLPHGTVLSSATYADGFHEQYLTIGDNFLARLEPKGQSFILSAAAASVKQRIFARVTMPDGALRACELLCEFETDRAKITVLALRSAFSLQASHVSSNFHVFTFITKHSSTCALTHIDYASIPYLGLLPTDLIGKSLLAFVYSPDVHVVRQAHIDLHNSRGKIVKSIADLRLVAHNGSILRCQTEWSAYVNPWTRKMELVVARHRICSLPIGDSDVISSPPPGIQSNTLPPVMAKTFEDELRTIMNKPVP", "notes": "remnant left on the N-terminus of LIN-42 after TEV cleavage of the HisGβ1 tag; LIN-42 (PERIOD homolog), C. elegans, residues 41-315; Crystallised construct was 41-315; Density was poor for the putative N-terminal PAS domain (residues 41-146), so only the PAS-B dimer was modelled; also called protease-resistant core of the LIN-42 N-terminus; LIN-42 PAS-B dimer; source: E. coli Rosetta2 (DE3), …"}}, "target": "the molecule itself", "assay": "crystal structure; hanging-drop vapor diffusion at 22 °C; LIN-42 41-315 at 4 mg/mL; reservoir 150 mM lithium sulfate, 1.5 M sodium potassium tartrate; molecular replacement with mouse PER2 PAS-B (PDB 3GDI)", "data": [{"protein": "B1", "values": [{"measurement": "binding result", "value": "binds"}]}]}
